B1: Serine/threonine-protein kinase SCH9 (Saccharomyces cerevisiae), P11792 (parent)
chain: MMNFFTSKSSNQDTGFSSQHQHPNGQNNGNNNSSTAGNDNGYPCKLVSSGPCASSNNGALFTNFTLQTATPTTAISQDLYAMGTTGITSENALFQMKSMNNGISSVNNNNSNTPTIITTSQEETNAGNVHGDTGGNSLQNSEDDNFSSSSTTKCLLSSTSSLSINQREAAAAAYGPDTDIPRGKLEVTIIEARDLVTRSKDSQPYVVCTFESSEFISNGPESLGAINNNNNNNNNNQHNQNQHINNNNENTNPDAASQHHNNNSGWNGSQLPSIKEHLKKKPLYTHRSSSQLDQLNSCSSVTDPSKRSSNSSSGSSNGPKNDSSHPIWHHKTTFDVLGSHSELDISVYDAAHDHMFLGQVRLYPMIHNLAHASQHQWHSLKPRVIDEVVSGDILIKWTYKQTKKRHYGPQDFEVLRLLGKGTFGQVYQVKKKDTQRIYAMKVLSKKVIVKKNEIAHTIGERNILVTTASKSSPFIVGLKFSFQTPTDLYLVTDYMSGGELFWHLQKEGRFSEDRAKFYIAELVLALEHLHDNDIVYRDLKPENILLDANGNIALCDFGLSKADLKDRTNTFCGTTEYLAPELLLDETGYTKMVDFWSLGVLIFEMCCGWSPFFAENNQKMYQKIAFGKVKFPRDVLSQEGRSFVKGLLNRNPKHRLGAIDDGRELRAHPFFADIDWEALKQKKIPPPFKPHLVSETDTSNFDPEFTTASTSYMNKHQPMMTATPLSPAMQAKFAGFTFVDESAIDEHVNNNRKFLQNSYFMEPGSFIPGNPNLPPDEDVIDDDGDEDINDGFNQEKNMNNSHSQMDFDGDQHMDDEFVSGRFEI
partner: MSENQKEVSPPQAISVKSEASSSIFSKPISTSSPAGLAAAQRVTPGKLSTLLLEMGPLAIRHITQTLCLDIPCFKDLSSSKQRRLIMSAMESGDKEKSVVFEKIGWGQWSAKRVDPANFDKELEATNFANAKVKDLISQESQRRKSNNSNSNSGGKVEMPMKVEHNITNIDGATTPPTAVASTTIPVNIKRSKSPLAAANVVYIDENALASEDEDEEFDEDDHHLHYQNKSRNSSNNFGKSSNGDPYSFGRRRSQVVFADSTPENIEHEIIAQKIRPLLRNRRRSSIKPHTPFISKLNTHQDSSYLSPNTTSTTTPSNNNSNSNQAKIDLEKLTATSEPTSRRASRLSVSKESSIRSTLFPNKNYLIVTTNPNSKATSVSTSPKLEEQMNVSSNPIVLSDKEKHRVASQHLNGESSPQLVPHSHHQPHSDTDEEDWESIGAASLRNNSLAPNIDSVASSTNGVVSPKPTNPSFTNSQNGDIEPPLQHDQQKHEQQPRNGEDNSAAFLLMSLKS
B2: Transcriptional regulatory protein TOD6 (Saccharomyces cerevisiae), P34219 (parent)
chain: MTLPKLSSVSVSSGHVSANSHGFSILSKHPHPNNLVHSHSLSHTNAKSHLPISSTSTKENSTNKEEAESLKKNNPSSWDPSDDIKLRHLKEIKNLGWKEIAHHFPNRTPNACQFRWRRLKSGNLKSNKTAVIDINKLFGVYATGDATPSAGTPSAEEAVKEEAVEDEDITAGSSAIEDSPPDFKPLVKPKYMDRKLITQRSTSTFSDHEPQHTKPRKLFVKPRSFSHSITTNTPNVKTAQQTNLSLYNTTSAKTNKAVNSNDYENIGLVPKIIIRSRRNSFIPSTQIPHSTTKTRKNSHSVISSRRSSFNMMHSRRSSFNSHAPTEPISRRASLVVSPYMSPRRLSTSQSVHYHPQHQYYLNPIASPNCKTDHANDKITHTRTFLDMQKFANKHPWSREDDEVLLNNTKDKQNHLSPLEISIVLPNNRSELEIQQRMDYLKRKGRVSGFHTNEGCKDEEEEDDIDPLHKENGINTPSQQSQNYGMLEAKHDNPKSSELSSMTSANDIRNEQDELPGINSIFKNIF
partner: B1 chain
B3: Transcriptional regulatory protein DOT6 (Saccharomyces cerevisiae), P40059 (parent)
chain: MSISTSLNSASIHLSSMDTHPQLHSLTRQPHSSSTAMSKNEAQESSPSLPASSSSSTSASASASSKNSSKNPSSWDPQDDLLLRHLKEVKKMGWKDISQYFPNRTPNACQFRWRRLKSGNLKSNKTALIDINTYTGPLKITHGDETANAQQKPSKKVEENVLTEDTAEFTTTSSIPIPSRKTSLPSFHASMSFSQSPSNVTPTTIVSNAASSMPFAPPTLPAALPHHPHQHLHHHPHHKTLKPRSNSHSFTNSLNQDPIVRSNDEEKYGFIPKVFVRSRRSSFAYPQQVAITTTPSSPNSSHVLLSSKSRRGSLANWSRRSSFNVSSNNTSRRSSMILAPNSVSNIFNVNNSGSNTASTSNTNSRRESVIKKEFQQRLNNLSNSGGPTSNNGPIFPNSYTFMDLPHSSSVSSSSTLHKSKRGSFSGHSMKSSCNPTNLWSKDEDALLMENKKRNLSVMELSILLPQRTEVEIQWRLNALSSDADMLSPTHSPQKTLSKKTCPRMFKSGSTTDDDKGSDKEDVMGDGSNDDDEDNVDPLHRAKQSSNKTVFSSSSSNISSKDVSPDPIFSPDPADDSSNTSDAGSRCTITSDTSSSAATMNRTPNSKNPQDIALLNNFRSEAITPRPKPSSTTTSITTETTNNMINHSSSTTTTTNNSPLPSINTIFKDML
partner: B1 chain
B4: Serine/threonine-protein kinase SCH9 (Saccharomyces cerevisiae), P11792 (parent)
chain: B1 chain
partner: B3 chain
B5: Serine/threonine-protein kinase SCH9 (Saccharomyces cerevisiae), P11792 (parent)
chain: B1 chain
partner: B2 chain

Variants of: B1
Conditions: with stb3_yeast STB3, Q12427

effect of a mutation on the interaction | Variant
increasing interaction | T6E

Variants of: B2
Conditions: with sch9_yeast SCH9, P11792

effect of a mutation on the interaction | Variant
decreasing interaction | L6A

Variants of: B3
Conditions: with sch9_yeast SCH9, P11792

effect of a mutation on the interaction | Variant
decreasing interaction | T5A

Variants of: B4
Conditions: with dot6_yeast DOT6, P40059

effect of a mutation on the interaction | Variant
increasing interaction | T6E

Variants of: B5
Conditions: with tod6_yeast TOD6, P34219

effect of a mutation on the interaction | Variant
increasing interaction | T6E

From IntAct's records for PubMed 21730963
